Assay [1] addresses R. shameli ACE2‐mFC (Rhinolophus shameli). Put plainly: SPR. Background: Surface plasmon resonance follows binding to a sensor surface in real time, without labels.
The next assay deals with S309. Kind of assay: SPR.

pKd: −log10 of the molar value.

The pKd is the negative decadic logarithm of the Kd, by convention in mol/L.

In turn, “SARS‐CoV‐2 RBD (from UniProt P0DTC2 319-541) (domain or fragment)” gave a pKd in assay [1] of 5.18.

Substance “RshSTT182/200 receptor binding domain (RBD) (domain or fragment)” had a negative-log Kd (pKd) with S309 of 8.43.

Source of the values: publication PMC9877840.
